The text below walks through data of PMC8879737.

Where “and” joins values, the source holds several entries; their conditions need not be identical. Identical values can stand only once. Like-named read-outs stand apart in the source and are kept apart here.

By stoichiometry N is commonly meant the number of molecules, sites or subunits per partner or assembly.

Assay [1] has as its target ChromePure human IgG Fc (human). Put plainly: SPR; Biacore 2000; human IgG Fc and human, rabbit, mouse, guinea pig whole IgG amine coupled to CM5 chips (854, 1348, 1094, 857, 1143 RU); gE monomers and gE/gI heterodimers at 750 μg/mL (Bac gE-1 t411 490 μg/mL) flowed at 30 μL/min in 0.01 M HEPES pH 7.4, 0.15 M NaCl, 0.005% P20; one concentration, RU at the end of association and of dissociation.

Assay [2] has as its target human whole molecule IgG (human). Described as above.
For assay [3], the target named is rabbit whole molecule IgG (rabbit). The assay is described as above.
Assay [4] concerns the target guinea pig whole molecule IgG (guinea pig). The description is as above.
Assay [5] addresses ChromePure human IgG Fc (human). Described as above. This is another data set of the same source.
In assay [6] the target is human whole molecule IgG (human). Described as above. This is another data set of the same source.
The target of assay [7] is rabbit whole molecule IgG (rabbit). Described as above. This is another data set of the same source.
Assay [8] deals with gE-2 t417 (HSV-2 strain 333). Put plainly: SEC-MALS; Superdex 200, 10 mM HEPES, 150 mM NaCl, pH 7.5, 20 °C, 0.5 mL/min; 200 µg injected; conjugate analysis (protein and carbohydrate). On the technique in general: SEC sorts molecules by how far they enter the pores of the column.

As for gE-2 t405/gI-2 t262 (complex), the RU post association in assay [1] was found to be 100 RU; in assay [2] it was 142 RU; in assay [3], 165 RU. Further, the values for the RU post dissociation in assay [1], in assay [2] and in assay [3] were 7.7 RU, 14 RU and 34 RU, respectively.

With Bac gE-1 t411 (domain or fragment), the RU post association is 77 RU in assay [1]; 32 RU in assay [4]; 147 RU in assay [2]; 231 RU in assay [3]; 80 RU in assay [5]; 157 RU and 145 RU in assay [6]. Moreover, the RU post association in assay [7] was 228 RU and 221 RU. The RU post dissociation turned out to be 3.3 RU in assay [4], 32 RU in assay [2] and 75 RU in assay [3].

Regarding gE-2 t24-405/gI-2 t262 (complex), the RU post association in assay [1] came out at 95 RU; in assay [2] it was 136 RU; in assay [3] it was 142 RU. The RU post dissociation in assay [1] is 6.6 RU; in assay [2], 12 RU; in assay [3] it was 25 RU.

In assay [8], “gI-2 t262 (strain 333) (domain or fragment)” gave a stoichiometry N of 1.

On to gE-2 t414/gI-2 t262 (complex), for which the RU post association in assay [1] was 53 RU; in assay [2], 79 RU; in assay [3] it was 75 RU. Further, the results for the RU post dissociation in assay [1], in assay [2] and in assay [3] were 0.6 RU, -0.4 RU and -0.6 RU, respectively.

On to gE-1 t419/gI-1 t269 (complex), for which the RU post association in assay [1] stood at 216 RU; in assay [4], 19 RU; in assay [2], 232 RU; in assay [3], 195 RU. In addition, the RU post dissociation in assay [1] is 137 RU; in assay [4], 0.8 RU; in assay [2], 189 RU; in assay [3], 170 RU.

As to gE-2 t417/gI-2 t262 (complex), the RU post association in assay [2] is 52 RU; in assay [3], 46 RU; in assay [6], 53 RU and 133 RU. Also, the figures for the RU post dissociation in assay [2] and in assay [3] were -2.1 RU and -1.5 RU, respectively.

With gE-1 t419 (domain or fragment), the RU post association was determined as 27 RU in assay [4], 127 RU in assay [2] and 188 RU in assay [3]. The RU post dissociation in assay [4] was -2.4 RU; in assay [2] it was -1.9 RU; in assay [3] it was 0.6 RU.
